The target in data set [1] is mouse ICAM-1 (endogenous) (mouse (endogenous in bEnd.3, NOD LGACs)) (UniProt P13597).
Data set [2] shares this target. This is another data set of the same source.
Data set [3] concerns the molecule itself. Nature of the data set: dynamic light scattering; 25 µM in PBS, pH 7.4, heated from 10 °C to 37 °C; assembly of monomers into nanoparticles above Tt1.
Data set [4] addresses mouse ICAM-1 (endogenous) (mouse (endogenous in bEnd.3, NOD LGACs), UniProt P13597 28-537). Nature of the data set: cell-based or functional assay.

The values below come from PMC7216292, “A Multivalent ICAM-1 Binding Nanoparticle which Inhibits ICAM-1 and LFA-1 Interaction Represents a New Tool for the Investigation of Autoimmune-Mediated Dry Eye” (International Journal of Molecular Sciences, 2020).

Chain of mouse ICAM-1 (endogenous) (mouse (endogenous in bEnd.3, NOD LGACs)) (P13597 28-537): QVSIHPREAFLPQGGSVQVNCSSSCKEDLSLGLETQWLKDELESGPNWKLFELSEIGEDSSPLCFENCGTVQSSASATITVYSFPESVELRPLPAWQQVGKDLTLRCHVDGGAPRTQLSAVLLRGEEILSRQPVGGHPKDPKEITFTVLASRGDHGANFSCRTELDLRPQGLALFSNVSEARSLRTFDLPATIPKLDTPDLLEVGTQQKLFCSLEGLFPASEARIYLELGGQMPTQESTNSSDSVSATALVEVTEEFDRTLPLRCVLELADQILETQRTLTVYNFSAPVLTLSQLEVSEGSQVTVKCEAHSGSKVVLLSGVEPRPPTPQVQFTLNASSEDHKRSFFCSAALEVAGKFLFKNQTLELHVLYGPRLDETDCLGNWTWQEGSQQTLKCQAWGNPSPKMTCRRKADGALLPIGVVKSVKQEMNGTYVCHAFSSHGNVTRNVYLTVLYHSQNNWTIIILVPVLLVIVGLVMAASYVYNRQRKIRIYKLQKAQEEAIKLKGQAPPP
Chain of mouse ICAM-1 (endogenous) (P13597 28-537): as above

Consider “lymphocyte function-associated antigen-1 (LFA-1) (from UniProt P24063 24-1162; P11835 24-771) (receptor)”, for which, in data set [1], the adhesion of fluorescently labelled splenocytes to TNF-α-induced bEnd.3 cells in the presence of 100 µM SI (negative control), percent of the control without ELP, plate reader turned out to be 76.2% and the splenocyte binding to TNF-α-induced bEnd.3 cells in the presence of 100 µM SI (negative control), percent of the control without ELP, flow cytometry was 86.9%. Further, in data set [2], the proliferation of CFSE-labelled mouse CD4+ T-cells stimulated with MCC-loaded CH27 cells, in the presence of 100 µM SI (control), 5 days, percent of the untreated mixture amounted to 91.2%.

B1: SI (diblock elastin-like polypeptide S48I48) (other)
chain: MGVPGSGVPGSGVPGSGVPGSGVPGSGVPGSGVPGSGVPGSGVPGSGVPGSGVPGSGVPGSGVPGSGVPGSGVPGSGVPGSGVPGSGVPGSGVPGSGVPGSGVPGSGVPGSGVPGSGVPGSGVPGSGVPGSGVPGSGVPGSGVPGSGVPGSGVPGSGVPGSGVPGSGVPGSGVPGSGVPGSGVPGSGVPGSGVPGSGVPGSGVPGSGVPGSGVPGSGVPGSGVPGSGVPGSGVPGSGVPGSGVPGIGVPGIGVPGIGVPGIGVPGIGVPGIGVPGIGVPGIGVPGIGVPGIGVPGIGVPGIGVPGIGVPGIGVPGIGVPGIGVPGIGVPGIGVPGIGVPGIGVPGIGVPGIGVPGIGVPGIGVPGIGVPGIGVPGIGVPGIGVPGIGVPGIGVPGIGVPGIGVPGIGVPGIGVPGIGVPGIGVPGIGVPGIGVPGIGVPGIGVPGIGVPGIGVPGIGVPGIGVPGIGVPGIGVPGIGVPGIGY
notes: N-terminal leader; also called parent SI; source: E. coli BLR(DE3), purified by ELP-mediated phase separation
For B1, the binding result in data set [3] was “binds”.

B2: IBP-SI (ICAM-1 binding peptide fused to the diblock elastin-like polypeptide S48I48) (designed binder)
chain: MGFEGFSFLAFEDFVSSIGVPGSGVPGSGVPGSGVPGSGVPGSGVPGSGVPGSGVPGSGVPGSGVPGSGVPGSGVPGSGVPGSGVPGSGVPGSGVPGSGVPGSGVPGSGVPGSGVPGSGVPGSGVPGSGVPGSGVPGSGVPGSGVPGSGVPGSGVPGSGVPGSGVPGSGVPGSGVPGSGVPGSGVPGSGVPGSGVPGSGVPGSGVPGSGVPGSGVPGSGVPGSGVPGSGVPGSGVPGSGVPGSGVPGSGVPGSGVPGSGVPGIGVPGIGVPGIGVPGIGVPGIGVPGIGVPGIGVPGIGVPGIGVPGIGVPGIGVPGIGVPGIGVPGIGVPGIGVPGIGVPGIGVPGIGVPGIGVPGIGVPGIGVPGIGVPGIGVPGIGVPGIGVPGIGVPGIGVPGIGVPGIGVPGIGVPGIGVPGIGVPGIGVPGIGVPGIGVPGIGVPGIGVPGIGVPGIGVPGIGVPGIGVPGIGVPGIGVPGIGVPGIGVPGIGVPGIGVPGIGY
notes: N-terminal leader; residue between IBP and the ELP; Unlabelled form; also called IBI-SI; source: E. coli BLR(DE3), purified by ELP-mediated phase separation
Consider B2, for which the binding result in data set [3] was “binds”. In data set [4], the “IC50 of inhibition of adhesion of PMA-activated, CFSE-labelled mouse splenocytes (LFA-1) to TNF-α-induced bEnd.3 cells (ICAM-1), flow cytometry, IBP-SI 10-150 µM, 45 min, 37 °C” value was determined as 62.7 µM and the “IC50 of inhibition of adhesion of PMA-activated, CFSE-labelled mouse splenocytes (LFA-1) to TNF-α-induced bEnd.3 cells (ICAM-1), fluorescence plate reader, IBP-SI 10-150 µM, 45 min, 37 °C” value worked out at 81.2 µM.
